# In the supplement of paper PMC9170038:
# How the values were obtained:
# [1] = system: MS2 coat protein; test: apparent KD of MS2 coat protein, switch OFF state (with FMN for OFF switches, without FMN for ON switches); designed switch direction (-1 OFF switch, 1 ON switch): -1; higher = weaker reporter binding; details: FMN input: 0 or 200 uM; Eterna round: R93 (includes R88 designs)
# How it was run: (§1)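 For every design, apparent KD is the median of normalised binding-curve fits from its clusters. The RNA switches were transcribed on-chip from Illumina sequencing clusters and titrated with SNAP-549-labelled MS2 coat protein (twofold steps, 0.7 or 1.5 nM to 3 µM; 0.8–1.5 h to 10–20 min per step). Titrations used 100 mM Tris-HCl pH 7.5, 80 mM KCl, 4 mM MgCl2, without or with constant ligand.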
# [2] = system: MS2 coat protein; test: apparent KD of MS2 coat protein, switch ON state; designed switch direction (-1 OFF switch, 1 ON switch): -1; higher = weaker reporter binding; details: FMN input: 0 or 200 uM; Eterna round: R93 (includes R88 designs)
# How it was run: as §1
Sequence,apparent KD of MS2 coat protein [1] [nM],apparent KD of MS2 coat protein [2] [nM]
AAAAGGAUAGGAUAUACAUGAGGAUCACCCAUGUGAAUAAAUAAAAGAAAUAAAGAAAGUAGAAGGGUCAAGAA,22,25.8
CUCAAGUAAGGAUAUGAAAGAAAAGAAGAGAAAGAAAAGAAUCAGAAGGUACAUGAGGAUCACCCAUGUAAGAA [EteRNA is fun!],23.1,30.3
AAAAAAGGAGGAUAUACGAACAUGUCGAAAGACGUGAAGGGACAUGAGGAUCACCCAUGUAGAAGGUCUAAAAA [Mat - Exclusion 2 - JL mod - D87],29.9,30.7
AAGAAGCGAGGAUAUACAAAAUAAAAGAAAAGAAAGAAAGAACAUGAGGAUCACCCAUGUAGAAGGCGUAAGAA [Sankhenre Sewadjtu],11.1,13.3
AAAAAACAAGGAUAUACAAAAAUAAAAAGAAUAAAGUGAAAACAUGAGGAUCACCCAUGUAGAAGGUGUAAAAA [Default title],44.8,67
AUAGGCCUAGGAUAUACAUGAGGAUCACCCAUGUUAAUAAUUCAAACAUGAUAAACGUGUAGAAGGAGGAAUAA [JR_Exc003_Sub302],65.3,40.8
AGCACGUCAGGAUAUACGAAAAAAAAGGGUAAACUAAAGGGACAUGAGGAUCACCCAUGUAGAAGGGACAAGCA [Diamond 92],245,90.8
AAGAAGUCAGGAUAUACAUGAGGAUCACCCAUGUAAAAGAAAGAGGGAAAAGAGAAAAGUAGAAGGGACAAGAA [Arsinoe I],32.1,29.1
AACAGUACAGGAUAUACAUGAGGAUCACCCAUGUGAGAAAUAAGUGGCGUACCACAAAGUAGAAGGGUACUGGA [Mat - Exclusion 3 - JL mod - D21],150,32.6
CUCUAGUUAGGAUAUCGAAGAAAAGAAAAGAAAGAAAAGAACGAGAAGGAACAUGAGGAUCACCCAUGUAAGAA [EteRNA is fun!],28,29.1
AAAACAAAAGGAUAUAAAAACAAAAGUCAGGAUAUAGGAAACUAGAAGGGACAUGAGGAUCACCCAUGUAAAAC [Meechl Ex4 R2 m3],44.5,55.9
AAAAAACAUGAGGAUCACCCAUGUCAGGAUAUCGUUGAAAAAAAAAAAAAAAAAAAAGCGAGAAGGGACACGAA [exclusion1-cac3],41.8,60.7
GGUUGGCGAGGAUAUACAUGAGGAUCACCCAUGUGAGAGAAAAAAGUAAGAAAGAAAAGUAGAAGGCGCUGACG [salish99-ex3-51],87.8,30.7
AAAAAGUGAGGAUAUACAUGAGGAUCACCCAUGUGAAAGUCGAAAAAAAAGACAAAAAGUAGAAGGCACAAAAA [Fiskers Exclusion 3 D2],30.3,22.7
"AAGUGGGCAGGAUAUACAUGAGGAUCACCCAUGUAAAGAAAAGAAAGAUCCGAAGAAAGUAGAAGGGCCUGCAA [Mod 1 of Ex3 sub 3, by Tesla's Dusciple Round 1]",137,144
AGUAUGCGAGGAUAUACAUGAGGAUCACCCAUGUGAGAGAUAUGAGUGAGAAAGACAAGUAGAAGGCGCGUACA [JL Lego Mod 26],11.4,99.8
AAGAACUCAGGAUAUACAUGAGGAUCACCCAUGUAAAAGAAAGAGGGAAAAGAGAAAAGUAGAAGGGAGAAGAA [Ptolemy IV Philopator],46.9,14
UAAAAGGUAGGAUAUACUUGGAAGACCUGCCAACAAUAACAACAUGAGGAUCACCCAUGUAGAAGGACCAAUAU [Edtiatlema],19.5,23.2
GUGUACAGAGGAUAUACAUGAGCUAGGAAACUAGCAGGAUCACAUGAGGAUCACCCAUGUAGAAGGCUGUACAC [Ex2: 731],15.5,42.5
GUGUACAGAGGAUAUACAUGAGCAUGGAAUCAUGCAGGAUCACAUGAGGAUCACCCAUGUAGAAGGCUGUACAC [LROPPY Exclusion 2 - v06_mod Brourd],39.8,66.9
AAAGGACGAGGAUAUACAUGAGGAUCACCCAUGUAAAAAACAUAGUAAAAGAGCUUGUGUAGAAGGCGUCCAAA [Meechl Ex3 2 R2 v8],215,94.5
GUGUACAGAGGAUAUAUAUGAGCAUGGAAACAUGCAUCCUCACAUGAGGAUCACCCAUGUAGAAGGCUGUACAC [Ex2: 704],41.3,624
